Laboratory results taken from article PMC12645976, “ARGLU1 is a negative regulator of the adenoviral replicative cycle” (Journal of Virology, 2025).

Target: T1, 6xHis-E1A289R (HAdV5 E1A289R, 6xHis-tagged fusion protein) (human adenovirus 5 (HAdV5), UniProt P03255 1-289)
T1 construct: Early protein 1A (E1A) of human adenovirus 5 (HAdV5), the 289R product (289 residues by its name); also called Early protein 1A
Experiment: pull-down; GST-ARGLU1 or GST mixed with 6xHis-E1A289R, captured on glutathione beads; 1 µg of each protein; western blot with M73 and M2 monoclonal E1A antibodies; glutathione beads alone as negative control
Settings: both partners purified

T1 sequence (P03255 whole entry, the tested form may be a part): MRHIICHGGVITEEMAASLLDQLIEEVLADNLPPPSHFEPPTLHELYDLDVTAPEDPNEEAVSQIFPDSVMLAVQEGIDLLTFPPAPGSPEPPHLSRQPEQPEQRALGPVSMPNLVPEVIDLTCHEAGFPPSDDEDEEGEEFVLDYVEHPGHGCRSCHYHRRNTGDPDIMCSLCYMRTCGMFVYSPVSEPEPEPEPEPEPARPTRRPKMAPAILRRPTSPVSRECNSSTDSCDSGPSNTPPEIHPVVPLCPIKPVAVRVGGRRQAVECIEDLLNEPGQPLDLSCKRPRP

B1: GST-ARGLU1 (human ARGLU1, GST-tagged fusion protein) (natural protein, UniProt Q9NWB6 1-273, looked up)
chain: MGRSRSRSSSRSKHTKSSKHNKKRSRSRSRSRDKERVRKRSKSRESKRNRRRESRSRSRSTNTAVSRRERDRERASSPPDRIDIFGRTVSKRSSLDEKQKREEEEKKAEFERQRKIRQQEIEEKLIEEETARRVEELVAKRVEEELEKRKDEIEREVLRRVEEAKRIMEKQLLEELERQRQAELAAQKAREEEERAKREELERILEENNRKIAEAQAKLAEEQLRIVEEQRKIHEERMKLEQERQRQQKEEQKIILGKGKSRPKLSFSLKTQD
notes: Arginine and glutamate-rich protein 1 (ARGLU1), human; also called Arginine and glutamate-rich protein 1; source: E. coli BL21 (DE3)-CodonPlus RIPL, purified (glutathione Sepharose, eluted with reduced glutathione, dialyzed)
  binding result: binds
